B1: CsgG with a C-terminal 6×His tag (natural protein, E. coli, UniProt P0AEA2 16-277, looked up)
chain: CLTAPPKEAARPTLMPRAQSYKDLTHLPAPTGKIFVSVYNIQDETGQFKPYPASNFSTAVPQSATAMLVTALKDSRWFIPLERQGLQNLLNERKIIRAAQENGTVAINNRIPLQSLTAANIMVEGSIIGYESNVKSGGVGARYFGIGADTQYQLDQIAVNLRVVNVSTGEILSSVNTSKTILSYEVQAGVFRFIDYQRLLEGEVGYTSNEPVMLCLMSAIETGVIFLINDGIDRGLWDLQNKAERQNDILVKYRHMSVPPES
notes: CsgG, E. coli K12 MG1655; the full-length csgG gene was expressed and the protein purified from outer membranes; the structure holds residues 16-272 with the C-terminal 5 residues invisible (so 16-277); numbers count on the full-length precursor; also called CsgGHis; C-terminally His-tagged CsgG; not shown: His6, C-terminal, kept
B2: chymotrypsin-digested CsgG (residues 47–252) of the CsgG-CsgF_(20–59) complex (domain or fragment, E. coli, UniProt P0AEA2 47-252, looked up)
chain: GKIFVSVYNIQDETGQFKPYPASNFSTAVPQSATAMLVTALKDSRWFIPLERQGLQNLLNERKIIRAAQENGTVAINNRIPLQSLTAANIMVEGSIIGYESNVKSGGVGARYFGIGADTQYQLDQIAVNLRVVNVSTGEILSSVNTSKTILSYEVQAGVFRFIDYQRLLEGEVGYTSNEPVMLCLMSAIETGVIFLINDGIDRGLW
notes: numbers count on the full-length precursor; The His tag goes with the C-terminal residues that chymotrypsin removed; source: E. coli BL21 (DE3), co-expressed with CsgF, purified (Ni-NTA), chymotrypsin proteolysis, size exclusion chromatography; not shown: His6, C-terminal, cleaved
B3: CsgF_(20–53)-GST (domain or fragment, E. coli, UniProt P0AE98 20-53, looked up)
chain: GTMTFQFRNPNFGGNPNNGAFLLNSAQAQNSYKD
notes: CsgF, E. coli, residues 20-53 (N-terminus of the mature CsgF); numbers count on the full-length precursor; also called CsgF_(20–53) fused to GST C-terminally; source: E. coli BL21 (DE3), purified; not shown: GST, C-terminal, kept

Legend:
[1] = biological target: the molecule itself; assay: cryo-EM structure; full-length CsgG-CsgF complex, co-expressed and co-purified in DDM; map at 3.6 Å
[2] = biological target: the molecule itself; assay: cryo-EM structure; chymotrypsin-digested CsgG-CsgF_(20–59) complex in 20 mM Tris-HCl pH 8.0, 150 mM NaCl, 0.06% DDM; filaments on the grid; maps at 2.9 Å (head-to-head, D9) and 3.2 Å (head-to-tail, C9)
[3] = biological target: B1; assay: pull-down; GST fusions or GST (approximately 0.1 mg) immobilised on glutathione sepharose, approximately 0.2 mg CsgG added, 1 hour at 4°C; washed with 20 mM Tris-HCl pH 7.5, 150 mM NaCl, 5% glycerol, 0.1% DDM; SDS-PAGE and anti-His western blot; conditions: both partners purified

With B1 the “stoichiometry N” value [1] was 9.

In the case of B2, the “stoichiometry N” value [2] is reported as 9.

B3: binds [3].

Source: paper PMC7304575, “Cryo-EM structure of the nonameric CsgG-CsgF complex and its implications for controlling curli biogenesis in Enterobacteriaceae” (PLoS Biology, 2020)
